Source: IntAct's records for PubMed 26647308

B1: Forkhead box protein P1 (Homo sapiens), Q9H334 (parent)
chain: MMQESGTETKSNGSAIQNGSGGSNHLLECGGLREGRSNGETPAVDIGAADLAHAQQQQQQALQVARQLLLQQQQQQQVSGLKSPKRNDKQPALQVPVSVAMMTPQVITPQQMQQILQQQVLSPQQLQVLLQQQQALMLQQQQLQEFYKKQQEQLQLQLLQQQHAGKQPKEQQQVATQQLAFQQQLLQMQQLQQQHLLSLQRQGLLTIQPGQPALPLQPLAQGMIPTELQQLWKEVTSAHTAEETTGNNHSSLDLTTTCVSSSAPSKTSLIMNPHASTNGQLSVHTPKRESLSHEEHPHSHPLYGHGVCKWPGCEAVCEDFQSFLKHLNSEHALDDRSTAQCRVQMQVVQQLELQLAKDKERLQAMMTHLHVKSTEPKAAPQPLNLVSSVTLSKSASEASPQSLPHTPTTPTAPLTPVTQGPSVITTTSMHTVGPIRRRYSDKYNVPISSADIAQNQEFYKNAEVRPPFTYASLIRQAILESPEKQLTLNEIYNWFTRMFAYFRRNAATWKNAVRHNLSLHKCFVRVENVKGAVWTVDEVEFQKRRPQKISGNPSLIKNMQSSHAYCTPLNAALQASMAENSIPLYTTASMGNPTLGNLASAIREELNGAMEHTNSNESDSSPGRSPMQAVHPVHVKEEPLDPEEAEGPLSLVTTANHSPDFDHDRDYEDEPVNEDME

Variants of: B1
Conditions: with foxp2_human FOXP2, O15409
Sequence of foxp2_human FOXP2, O15409 (O15409 whole entry): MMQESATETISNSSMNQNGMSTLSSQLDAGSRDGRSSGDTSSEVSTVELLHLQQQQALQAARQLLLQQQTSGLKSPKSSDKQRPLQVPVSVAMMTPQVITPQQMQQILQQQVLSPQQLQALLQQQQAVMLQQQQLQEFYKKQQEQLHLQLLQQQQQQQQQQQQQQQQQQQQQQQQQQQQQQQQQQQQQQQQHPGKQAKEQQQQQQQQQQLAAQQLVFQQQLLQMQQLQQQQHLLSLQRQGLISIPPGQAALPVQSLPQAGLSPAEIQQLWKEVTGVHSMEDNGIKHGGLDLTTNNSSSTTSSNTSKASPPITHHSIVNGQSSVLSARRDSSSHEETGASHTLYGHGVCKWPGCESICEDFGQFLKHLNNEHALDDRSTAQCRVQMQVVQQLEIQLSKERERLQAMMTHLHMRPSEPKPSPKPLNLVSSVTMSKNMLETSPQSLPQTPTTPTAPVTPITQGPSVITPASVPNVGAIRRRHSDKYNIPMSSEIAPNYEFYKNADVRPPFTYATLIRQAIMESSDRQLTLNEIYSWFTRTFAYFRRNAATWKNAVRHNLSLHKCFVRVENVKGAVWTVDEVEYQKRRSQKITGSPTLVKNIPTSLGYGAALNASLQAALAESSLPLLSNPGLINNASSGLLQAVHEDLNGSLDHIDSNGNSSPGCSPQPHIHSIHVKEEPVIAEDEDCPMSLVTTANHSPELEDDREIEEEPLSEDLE

With I107T as the variant, how does the “effect of a mutation on the interaction” value read?
Its value is “disrupting interaction strength”.

With P215A as the variant, how does the “effect of a mutation on the interaction” value read?
The value was “decreasing interaction strength”.

For R465G, which “effect of a mutation on the interaction” value is on record?
Its value is “with no effect”.

R514C was tested. Which “effect of a mutation on the interaction” value did it give?
The value was “decreasing interaction strength”.

With W534R as the variant, how does the “effect of a mutation on the interaction” value read?
The value was “decreasing interaction strength”.

How did the “effect of a mutation on the interaction” value turn out when N570S was run?
The value was “with no effect”.

How did the “effect of a mutation on the interaction” value turn out when N597T was run?
The value was “with no effect”.

Variants of: B1
Conditions: with foxp2_human FOXP2, O15409
Remark: another data set of the same source

R465G was tested. Which “effect of a mutation on the interaction” value did it give?
The value was “decreasing interaction strength”.

With W534R as the variant, how does the “effect of a mutation on the interaction” value read?
Its value is “disrupting interaction strength”.
